Publication PMC3296934 (Frontiers in Molecular Neuroscience, 2012)

B1: GST-RK fragment L102-G183 (domain or fragment)
chain: LRPQKAQALRAAYLEPQAQLFCSFLDAETVARARAGAGDGLFQPLLRAVLAHLGQAPFQEFLDSLYFLRFLQWKWLEAQPMG
B2: GST-RK fragment F125-K175 (domain or fragment)
chain: FLDAETVARARAGAGDGLFQPLLRAVLAHLGQAPFQEFLDSLYFLRFLQWK
B3: GST fusion of the RK amino terminal region (N-RK: M1-G183) (domain or fragment)
chain: MDFGSLETVVANSAFIAARGSFDASSGPASRDRKYLARLKLPPLSKCEALRESLDLGFEGMCLEQPIGKRLFQQFLRTHEQHGPALQLWKDIEDYDTADDALRPQKAQALRAAYLEPQAQLFCSFLDAETVARARAGAGDGLFQPLLRAVLAHLGQAPFQEFLDSLYFLRFLQWKWLEAQPMG
B4: GST-RK fragment M1-L102 (domain or fragment)
chain: MDFGSLETVVANSAFIAARGSFDASSGPASRDRKYLARLKLPPLSKCEALRESLDLGFEGMCLEQPIGKRLFQQFLRTHEQHGPALQLWKDIEDYDTADDAL

biological target: calmodulin (bovine, UniProt P62157 1-149); test: SPR

Point of comparison: B2, Kd 17 µM. Against it:
- B1 — within 1.5-fold, 23 µM
- B3 — 3.7-fold higher, 63 µM
- B4 — 3.2-fold higher, 54 µM
